Columns and labels:
Mouse Aβ 1-40 = molecular target: T1, Mouse Aβ 1-40 (mouse, UniProt P12023 672-711); assay: BIAcore, single concentration of peptide
T1 construct: domain: Aβ 1-40; Numbers count on the Aβ peptide
T1 peptide (looked up): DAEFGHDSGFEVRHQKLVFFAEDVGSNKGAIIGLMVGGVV
Description: (§1) All dilutions were made with HEPES buffered saline containing Tween 20. A single concentration of a variety of fragments of human Aβ or mouse Aβ 1-40 (BioSource International) was used.

Human Aβ fragment 10-20 = molecular target: T2, Human Aβ fragment 10-20 (human, UniProt P05067 681-691); assay: BIAcore, single concentration of fragment
T2 construct: domain: Aβ fragment 10-20; Numbers count on the Aβ peptide; also called human amyloid beta 10-20
T2 peptide (looked up): YEVHHQKLVFF
Description: as §1

Human Aβ fragment 16-25 = molecular target: T3, Human Aβ fragment 16-25 (human, UniProt P05067 687-696); assay: BIAcore, single concentration of fragment
T3 construct: domain: Aβ fragment 16-25; Numbers count on the Aβ peptide; also called human amyloid beta 16-25
T3 peptide (looked up): KLVFFAEDVG
Description: as §1

β-amyloid peptide (1-42) [1] = molecular target: T4, β-amyloid peptide (1-42) (UniProt P05067 672-713); assay: BIAcore 2000, antibody captured by anti-IgG on CM5 chip, Aβ flowed over
T4 construct: domain: β-amyloid peptide (1-42); Numbers 1-42 count on the Aβ peptide, not on the APP precursor entry; also called Aβ 1-42; Amyloid-beta 1-42
T4 sequence (P05067 672-713 limits assumed): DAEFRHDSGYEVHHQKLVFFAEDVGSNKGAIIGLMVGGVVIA
Protocol: Antibody affinity (KD=Kd/Ka) was determined using a BIAcore biosensor 2000 and data analyzed with BIAevaluation (v. 3.1) software. A capture antibody (rabbit anti-mouse or anti-human IgG) was coupled via free amine groups to carboxyl groups on flow cell 2 of a biosensor chip (CM5) using N-ethyl-N-dimethylaminopropyl carbodiimide and N-hydroxysuccinimide (EDC/NHS). A non-specific rabbit IgG was coupled to flow cell 1 as a background control. Monoclonal antibodies were captured to yield 300 resonance units (RU). […] To regenerate the chip, bound anti-Aβ antibody was eluted from the chip using a wash with glycine-HCl (pH 2). A control injection containing no amyloid-beta served as a control for baseline subtraction.

β-amyloid peptide (1-42) [2] = molecular target: T4, β-amyloid peptide (1-42); assay: competitive ELISA on coated β-amyloid peptide (1-42); competitor against biotinylated Mu3D6; second set of three experiments
Protocol: (§2) After washing the wells with phosphate buffered saline (PBS) containing 0.1% Tween 20 (Washing Buffer) using an ELISA plate washer, the wells were blocked by adding 300 μL of SuperBlock reagent (Pierce) per well. After 30 minutes of blocking, the wells were washed with Washing Buffer and excess liquid was removed.
(§3) As a background control, 100 μl of ELISA Buffer was added. The ELISA plate was incubated at room temperature for 90 min. […] The plate was incubated at room temperature for 30 min and washed with Washing Buffer. For color development, 100 μl/well of ABTS Peroxidase Substrate (Kirkegaard & Perry Laboratories) was added. Color development was stopped by adding 100 μl/well of 2% oxalic acid. […] The absorbances were plotted against the log of the competitor concentration, curves were fit to the data points (using Prism) and the IC50 was determined for each antibody using methods well-known in the art.

β-amyloid peptide (1-42) [3] = molecular target: T4, β-amyloid peptide (1-42); assay: competitive ELISA on coated β-amyloid peptide (1-42); competitor against biotinylated Mu3D6 (0.2 µg/ml); first set of three experiments
Protocol: as §2, §3

B1: Humanized 3D6 antibody (antibody, human IgG1, kappa, V domains shown)
VH: EVQLVESGGGLVQPGGSLRLSCAGSGFTFSNYGMSWVRQAPGKGLEWVASIRSGGGRTYYSDNVKGRFTISRENAKNSLYLQMNSLRAEDTAVYYCVRYDHYSGSSDYWGQGTLVTVSS
VL: DVVMTQSPLSLPVTLGQPASISCKSSQSLLDSDGKTYLNWLQQRPGQSPRRLIYLVSKLDSGVPDRFSGSGSGTDFTLKISRVEAEDVGVYYCWQGTHFPRTFGGGTKVEIKR
notes: Expressed from pVk-Hu3D6 and pVg1-Hu3D6 in Sp2/0 (human kappa, gamma 1); also called Hu3D6
binding result (Mouse Aβ 1-40): no binding | binding result (Human Aβ fragment 10-20): no binding | binding result (Human Aβ fragment 16-25): no binding | Kd (β-amyloid peptide (1-42) [1]): 2.3 nM | IC50 (β-amyloid peptide (1-42) [2]): 3.97 µg/mL | IC50 (β-amyloid peptide (1-42) [3]): 3.3 µg/mL

Reference: US20050090648A1 (Eli Lilly, published 2005)
